The target of the assay is T1, Hik2-GST (full-length Histidine kinase 2 of Synechocystis sp. PCC 6803, GST-tagged) (Synechocystis sp. (strain ATCC 27184 / …, UniProt P73276)).
T1 chain: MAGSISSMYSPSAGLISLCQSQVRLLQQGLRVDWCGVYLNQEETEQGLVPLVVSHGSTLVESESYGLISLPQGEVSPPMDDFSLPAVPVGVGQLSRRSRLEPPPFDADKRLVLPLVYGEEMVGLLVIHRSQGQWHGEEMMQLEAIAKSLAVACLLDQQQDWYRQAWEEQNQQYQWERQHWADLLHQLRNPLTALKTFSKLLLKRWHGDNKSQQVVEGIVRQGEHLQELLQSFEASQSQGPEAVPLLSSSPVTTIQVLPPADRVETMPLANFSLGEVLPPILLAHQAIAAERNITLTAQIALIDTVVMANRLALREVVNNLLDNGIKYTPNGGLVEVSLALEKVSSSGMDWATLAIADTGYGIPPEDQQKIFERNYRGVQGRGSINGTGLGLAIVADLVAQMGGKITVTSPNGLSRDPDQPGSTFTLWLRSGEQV
Description: GST pull-down.

B1: Rre1_Rec-His6 (receiver domain of Response regulator 1) (protein)
chain: MAEPISLLLVDDEPGVRESVQAFLEDSGDFKVDLAANATEAWDYLQHHLPALVISDIMMPQVDGYQFLQKLREDARFQSLPVVFLTARGMTGDRIQGYQTGCDAFLSKPFDPDELEAIVRNLL
Regarding B1, the binding result was “binds”.
